T1: hIL-3 receptor (human, UniProt P26951)
T1 sequence: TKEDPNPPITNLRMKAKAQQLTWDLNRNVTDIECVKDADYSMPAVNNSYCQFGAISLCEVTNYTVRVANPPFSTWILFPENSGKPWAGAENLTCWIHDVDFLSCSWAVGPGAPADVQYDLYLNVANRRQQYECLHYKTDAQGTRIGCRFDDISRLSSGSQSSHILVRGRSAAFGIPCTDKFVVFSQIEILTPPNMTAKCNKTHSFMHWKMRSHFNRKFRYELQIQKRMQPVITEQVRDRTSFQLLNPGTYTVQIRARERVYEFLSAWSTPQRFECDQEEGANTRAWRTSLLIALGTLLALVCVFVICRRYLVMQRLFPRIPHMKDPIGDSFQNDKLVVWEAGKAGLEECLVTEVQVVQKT


Biological target: T1, hIL-3 receptor
Assay: cell-based or functional assay

Row | Relative Biological Activity (AML 193 proliferation) | Binder
1 | 3 EC50 (1-133)hIL-3 / EC50 mutant | pMON13294 polypeptide (ligand) MANCSIMIDEIIHHLKRPPNPLLDPNNLNSEDMDILMERNLRTPNLLAFVRAVKHLENASGIEAILRNLVPCLPSATAAPSRHPITIKAGDWQEFREKLTFYLVSLEHAQEQQ
2 | 26 EC50 (1-133)hIL-3 / EC50 mutant | pMON13287 polypeptide (ligand) MANCSIMIDEIIHHLKRPPAPLLDPNNLNAEDVDILMERNLRLPNLESFVRAVKNLENASGIEAILRNLQPCLPSATAAPSRHPIIIKAGDWQEFREKLTFYLVTLEQAQEQQ
3 | 6 EC50 (1-133)hIL-3 / EC50 mutant | pMON13292 polypeptide (ligand) MANCSIMIDEIIHHLKVPPAPLLDSNNLNSEDMDILMERNLRLPNLLAFVRAVKNLENASGIEAILRNLVPCLPSATAAPSRHPITIKAGDWQEFREKLTFYLVTLEQAQEQQ
4 | 20 EC50 (1-133)hIL-3 / EC50 mutant | pMON13290 polypeptide (ligand) MANCSIMIDEIIHHLKRPPAPLLDPNNLNAEDVDILMERNLRLPNLESFVRAVKNLENASGIEAILRNLVPCLPSATAAPSRHPITIKAGDWQEFREKLTFYLVTLEQAQEQQ
5 | 3 EC50 (1-133)hIL-3 / EC50 mutant | pMON13295 polypeptide (ligand) MANCSIMIDEIIHHLKVPPAPLLDSNNLNSEDMDILMERNLRLPNLLAFVRAVKNLENASGIEAILRNLVPCLPSATAAPSRHPITIKAGDWQEFREKLTFYLVSLEHAQEQQ
6 | 24 EC50 (1-133)hIL-3 / EC50 mutant | pMON13288 polypeptide (ligand) MANCSIMIDEIIHHLKRPPNPLLDPNNLNSEDMDILMERNLRTPNLLAFVRAVKHLENASGIEAILRNLQPCLPSATAAPSRHPIIIKAGDWQEFREKLTFYLVTLEQAQEQQ
7 | 13 EC50 (1-133)hIL-3 / EC50 mutant | pMON13289 polypeptide (ligand) MANCSIMIDEIIHHLKVPPAPLLDSNNLNSEDMDILMERNLRLPNLLAFVRAVKNLENASGIEAILRNLQPCLPSATAAPSRHPIIIKAGDWQEFREKLTFYLVTLEQAQEQQ
8 | 3 EC50 (1-133)hIL-3 / EC50 mutant | pMON13298 polypeptide (ligand) MANCSNMIDEIITHLKQPPLPLLDFNNLNGEDQDILMENNLRRPNLEAFNRAVKSLQNASGIEAILRNLQPCLPSATAAPSRHPIIIKAGDWQEFREKLTFYLVTLEQAQEQQ
9 | 2 EC50 (1-133)hIL-3 / EC50 mutant | pMON13299 polypeptide (ligand) MANCSNMIDEIITHLKQPPLPLLDFNNLNGEDQDILMENNLRRPNLEAFNRAVKSLQNASGIEAILRNLVPCLPSATAAPSRHPITIKAGDWQEFREKLTFYLVTLEQAQEQQ
10 | 3 EC50 (1-133)hIL-3 / EC50 mutant | pMON13300 polypeptide (ligand) MANCSNMIDEIITHLKQPPLPLLDFNNLNGEDQDILMENNLRRPNLEAFNRAVKSLQNASGIEAILRNLVPCLPSATAAPSRHPITIKAGDWQEFREKLTFYLVSLEHAQEQQ
11 | 2 EC50 (1-133)hIL-3 / EC50 mutant | pMON13301 polypeptide (ligand) MANCSIMIDEIIHHLKRPPAPLLDPNNLNAEDVDILMERNLRLPNLESFVRAVKNLENASAIESILKNLLPCLPLATAAPTRHPIHIKDGDWNEFRRKLTFYLKTLENAQAQQ
12 | 1.2 EC50 (1-133)hIL-3 / EC50 mutant | pMON13302 polypeptide (ligand) MANCSIMIDEIIHHLKRPPNPLLDPNNLNSEDMDILMERNLRTPNLLAFVRAVKHLENASAIESILKNLLPCLPLATAAPTRHPIHIKDGDWNEFRRKLTFYLKTLENAQAQQ
13 | 0.6 EC50 (1-133)hIL-3 / EC50 mutant | pMON13303 polypeptide (ligand) MANCSIMIDEIIHHLKVPPAPLLDSNNLNSEDMDILMERNLRLPNLLAFVRAVKNLENASAIESILKNLLPCLPLATAAPTRHPIHIKDGDWNEFRRKLTFYLKTLENAQAQQ

— patent US6051217, “Therapeutic uses of interleukin-3 (IL-3) multiple mutation polypeptides” (G. D. Searle & Co., dated 2000)
